# Results from patent publication US20090111745A1 (DOMANTIS, published 2009).
# Residue numbers refer to the chain shown, from its start.
# B1: DOM7m-12 (other)
# VL: DIQMTQSPSSLSASVGDRVTITCRASQSIFRHLKWYQQKPGKAPKLLIYAASRLQSGVPSRFSGSGSGTDFTLTISSLQPEDFATYYCQQVALYPKTFGQGTKVEIKR
# notes: also called MSA 12
# B2: DOM7r-1 (other)
# VL: DIQTTQSPSSLSASVGDRVTITCRASQYIGRYLRWYQQKPGKAPKLLIYDSSVLQSGVPSRFSGSGSGTDFTLTISSLQPEDFATYYCQQRYRMPYTFGQGTRVEIKR
# B3: DOM7h-8 (other)
# VL: DIQMTQSPSSLSASVGDRVTITCRASQSISSYLNWYQQKPGKAPKLLIYRNSPLQSGVPSRFSGSGSGTDFTLTISSLQPEDFATYYCQQTYRVPPTFGQGTKVEIKR
# B4: DOM7h-1 (other)
# VL: B3 VL with P53F, R93T, R108Q
# notes: also called DOM7-1
# B5: DOM7h-7 (other)
# VL: B3 VL with P53Q, Y92F, R93A
# Experiments:
# [1] = biological target: T1, mouse serum albumin (mouse, UniProt P07724 25-608); assay: phage display selection on albumin (figure legend)
# T1 construct: also called MSA
# [2] = biological target: T2, rat serum albumin (rat, UniProt P02770 25-608); assay: BIACORE SPR, albumin on a CM5 chip, dAb in solution
# T2 construct: also called RSA
# Experimental: (§1) dAbs that bound serum albumin on a BIACORE chip (Biacore AB) were then further analysed to obtain information on affinity. The analysis was performed using a CM5 chip (carboxymethylated dextran matrix) that was coated with serum albumin. Flow cell 1 was an uncoated, blocked negative control, flow cell 2 was coated with HSA, flow cell 3 was coated with RSA and flow cell 4 was coated with MSA. The serum albumins were immobilised in acetate buffer pH 5.5 using the BIACORE coating wizard which was programmed to aim for 500 resonance units (RUs) of coated material. Each dAb of interest was expressed in the periplasm of E. coli on a 200 mL-500 mL scale and purified from the supernatant using batch absorption to protein A-streamline affinity resin (Amersham, UK) for the VH_{^S} and to protein L-agarose affinity resin (Affitech, Norway) for the Vκs followed by elution with glycine at pH 2.2 and buffer exchange to PBS. A range of concentrations of dAb were prepared (in the range 5 nM to 5 μM) by dilution into BIACORE HBS-EP buffer and flowed across the BIACORE chip.
# [3] = biological target: T1, mouse serum albumin; assay: table of affinities (KD); BIACORE on serum albumin-coated chip according to Example 1;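 also: surface plasmon resonance with dAbs flowed over a chip carrying human, rat or mouse serum albumin, blocked uncoated flow cell as reference, KD from on- and off-rate curve fits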
# Experimental: as §1
# [4] = biological target: T3, human serum albumin (human, UniProt P02768 25-609); assay: as above
# T3 construct: also called HSA; HAS
# Experimental: as §1
# [5] = biological target: T2, rat serum albumin; assay: as above
# Experimental: as §1
# [6] = biological target: T2, rat serum albumin; assay: BIACORE, RSA flow cell (Fc=3), fit of the single trace at 5n analyte, row 'Fc=3 -5' [contd.]
# Experimental: as §1
# [7] = biological target: T2, rat serum albumin; assay: BIACORE, RSA flow cell (Fc=3), fit of the single trace at 10n analyte, row 'Fc=3 -4' [contd.]
# Experimental: as §1
# [8] = biological target: T2, rat serum albumin; assay: BIACORE, RSA flow cell (Fc=3), fit of the single trace at 15n analyte, row 'Fc=3 -3' [contd.]
# Experimental: as §1
# [9] = biological target: T2, rat serum albumin; assay: BIACORE, RSA flow cell (Fc=3), fit of the single trace at 20n analyte, row 'Fc=3 -2' [contd.]
# Experimental: as §1
# [10] = biological target: T2, rat serum albumin; assay: BIACORE, RSA flow cell (Fc=3), fit of the single trace at 25n analyte, row 'Fc=3 -1' [contd.]
# Experimental: as §1
# [11] = biological target: T2, rat serum albumin; assay: BIACORE, RSA flow cell (Fc=3), fit of the single trace at 5n analyte, row 'Fc=3 -5'; KD cell shaded [contd.]
# Experimental: as §1
# [12] = biological target: T2, rat serum albumin; assay: BIACORE, RSA flow cell (Fc=3), fit of the single trace at 10n analyte, row 'Fc=3 -4'; KD cell shaded [contd.]
# Experimental: (§2) dAbs that bound serum albumin on a BIACORE chip (Biacore AB) were then further analysed to obtain information on affinity. The analysis was performed using a CM5 chip (carboxymethylated dextran matrix) that was coated with serum albumin. Flow cell 1 was an uncoated, blocked negative control, flow cell 2 was coated with HSA, flow cell 3 was coated with RSA and flow cell 4 was coated with MSA. The serum albumins were immobilised in acetate buffer pH 5.5 using the BIACORE coating wizard which was programmed to aim for 500 resonance units (RUs) of coated material. […] A range of concentrations of dAb were prepared (in the range 5 nM to 5 μM) by dilution into BIACORE HBS-EP buffer and flowed across the BIACORE chip.
# [13] = biological target: T2, rat serum albumin; assay: BIACORE, RSA flow cell (Fc=3), fit of the single trace at 15n analyte, row 'Fc=3 -3'; KD cell shaded [contd.]
# Experimental: as §1
# [14] = biological target: T2, rat serum albumin; assay: BIACORE, RSA flow cell (Fc=3), fit of the single trace at 20n analyte, row 'Fc=3 -2'; KD cell shaded [contd.]
# Experimental: as §1
# [15] = biological target: T2, rat serum albumin; assay: BIACORE, RSA flow cell (Fc=3), fit of the single trace at 25n analyte, row 'Fc=3 -1'; KD cell shaded [contd.]
# Experimental: as §2
# [16] = biological target: T3, human serum albumin; assay: BIACORE SPR, albumin on a CM5 chip, dAb in solution
# Experimental: as §1
# [17] = biological target: porcine serum albumin (porcine, UniProt P08835 25-607); assay: method not stated in the legend (BIACORE SPR for the other affinities)
# Sequence of porcine serum albumin (P08835 25-607 limits assumed): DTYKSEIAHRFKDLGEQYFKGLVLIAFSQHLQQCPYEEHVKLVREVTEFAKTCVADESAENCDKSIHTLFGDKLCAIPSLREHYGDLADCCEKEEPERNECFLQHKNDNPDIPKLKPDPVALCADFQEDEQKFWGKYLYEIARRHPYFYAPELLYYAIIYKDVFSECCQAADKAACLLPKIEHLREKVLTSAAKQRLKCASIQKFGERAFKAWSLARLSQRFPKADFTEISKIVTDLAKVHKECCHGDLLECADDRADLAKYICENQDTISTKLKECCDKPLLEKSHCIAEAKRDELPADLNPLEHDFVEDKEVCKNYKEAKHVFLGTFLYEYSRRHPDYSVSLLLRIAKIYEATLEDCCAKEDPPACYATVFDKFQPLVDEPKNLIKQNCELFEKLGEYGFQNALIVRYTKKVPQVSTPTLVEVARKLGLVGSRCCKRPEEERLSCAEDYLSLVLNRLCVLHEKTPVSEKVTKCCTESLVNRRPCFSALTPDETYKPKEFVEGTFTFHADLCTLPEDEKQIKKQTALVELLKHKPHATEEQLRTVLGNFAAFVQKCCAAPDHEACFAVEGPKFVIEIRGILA
# [18] = biological target: T3, human serum albumin; assay: method not stated there (BIACORE SPR in Example 1); reference value given inside prophetic Example 10
# [19] = biological target: T3, human serum albumin; assay: BIACORE, HSA flow cell (Fc=2), fit of the single trace at 250n analyte, row 'Fc=2 - 6' [contd.]
# Experimental: as §1
# [20] = biological target: T3, human serum albumin; assay: BIACORE, HSA flow cell (Fc=2), fit of the single trace at 500n analyte, row 'Fc=2 - 5' [contd.]
# Experimental: as §1
# [21] = biological target: T3, human serum albumin; assay: BIACORE, HSA flow cell (Fc=2), fit of the single trace at 1000n analyte, row 'Fc=2 - 4' [contd.]
# Experimental: as §1
# [22] = biological target: T3, human serum albumin; assay: BIACORE, HSA flow cell (Fc=2), fit of the single trace at 2000n analyte, row 'Fc=2 - 3' [contd.]
# Experimental: as §1
# [23] = biological target: T3, human serum albumin; assay: BIACORE, HSA flow cell (Fc=2), fit of the single trace at 250n analyte, row 'Fc=2 - 6'; KD cell shaded [contd.]
# Experimental: as §2
# [24] = biological target: T3, human serum albumin; assay: BIACORE, HSA flow cell (Fc=2), fit of the single trace at 500n analyte, row 'Fc=2 - 5'; KD cell shaded [contd.]
# Experimental: as §2
# [25] = biological target: T3, human serum albumin; assay: BIACORE, HSA flow cell (Fc=2), fit of the single trace at 1000n analyte, row 'Fc=2 - 4'; KD cell shaded [contd.]
# Experimental: as §1
# [26] = biological target: T3, human serum albumin; assay: BIACORE, HSA flow cell (Fc=2), fit of the single trace at 2000n analyte, row 'Fc=2 - 3'; KD cell shaded [contd.]
# Experimental: as §1
# [27] = biological target: T3, human serum albumin; assay: BIACORE, HSA flow cell (Fc=2), fit of the single trace at 125n analyte, row 'Fc=2 - 47' [contd.]
# Experimental: as §1
# [28] = biological target: T3, human serum albumin; assay: BIACORE, HSA flow cell (Fc=2), fit of the single trace at 250n analyte, row 'Fc=2 - 46' [contd.]
# Experimental: as §1
# [29] = biological target: T3, human serum albumin; assay: BIACORE, HSA flow cell (Fc=2), fit of the single trace at 500n analyte, row 'Fc=2 - 45' [contd.]
# Experimental: as §1
# [30] = biological target: T3, human serum albumin; assay: BIACORE, HSA flow cell (Fc=2), fit of the single trace at 1000n analyte, row 'Fc=2 - 44' [contd.]
# Experimental: as §1
# [31] = biological target: T3, human serum albumin; assay: BIACORE, HSA flow cell (Fc=2), fit of the single trace at 2000n analyte, row 'Fc=2 - 43' [contd.]
# Experimental: as §1
# [32] = biological target: T3, human serum albumin; assay: BIACORE, HSA flow cell (Fc=2), fit of the single trace at 3000n analyte, row 'Fc=2 - 42' [contd.]
# Experimental: as §1
# [33] = biological target: T3, human serum albumin; assay: BIACORE, HSA flow cell (Fc=2), fit of the single trace at 5000n analyte, row 'Fc=2 - 41' [contd.]
# Experimental: as §2
# [34] = biological target: T3, human serum albumin; assay: BIACORE, HSA flow cell (Fc=2), fit of the single trace at 62.5n analyte, row 'Fc=2 - 48' [contd.]
# Experimental: as §1
# [35] = biological target: T3, human serum albumin; assay: BIACORE, HSA flow cell (Fc=2), fit of the single trace at 125n analyte, row 'Fc=2 - 47'; KD cell shaded [contd.]
# Experimental: as §1
# [36] = biological target: T3, human serum albumin; assay: BIACORE, HSA flow cell (Fc=2), fit of the single trace at 250n analyte, row 'Fc=2 - 46'; KD cell shaded [contd.]
# Experimental: as §1
# [37] = biological target: T3, human serum albumin; assay: BIACORE, HSA flow cell (Fc=2), fit of the single trace at 500n analyte, row 'Fc=2 - 45'; KD cell shaded [contd.]
# Experimental: as §1
# [38] = biological target: T3, human serum albumin; assay: BIACORE, HSA flow cell (Fc=2), fit of the single trace at 62.5n analyte, row 'Fc=2 - 48'; KD cell shaded [contd.]
# Experimental: as §2
# [39] = biological target: T3, human serum albumin; assay: BIACORE, HSA flow cell (Fc=2), fit of the single trace at 1000n analyte, row 'Fc=2 - 44'; KD cell not shaded [contd.]
# Experimental: as §1
# [40] = biological target: T3, human serum albumin; assay: BIACORE, HSA flow cell (Fc=2), fit of the single trace at 2000n analyte, row 'Fc=2 - 43'; KD cell not shaded [contd.]
# Experimental: as §1
# [41] = biological target: T3, human serum albumin; assay: BIACORE, HSA flow cell (Fc=2), fit of the single trace at 3000n analyte, row 'Fc=2 - 42'; KD cell not shaded [contd.]
# Experimental: as §1
# [42] = biological target: T3, human serum albumin; assay: BIACORE, HSA flow cell (Fc=2), fit of the single trace at 5000n analyte, row 'Fc=2 - 41'; KD cell not shaded [contd.]
# Experimental: as §1
binder,measurement,setting,value
B1,binding result,[1],binds
B2,Kd,[2],0.01 to 0.1 µM
same,binding result,[3],no binding
same,binding result,[4],no binding
same,Kd,[5],0.015 µM
same,Ka,[6],6.12e+07 M⁻¹
same,koff,[6],0.0316 s⁻¹
same,kon,[6],1.93e+06 M⁻¹ s⁻¹
same,Ka,[7],9.07e+07 M⁻¹
same,koff,[7],0.0316 s⁻¹
same,kon,[7],2.87e+06 M⁻¹ s⁻¹
same,Ka,[8],7.62e+07 M⁻¹
same,koff,[8],0.0331 s⁻¹
same,kon,[8],2.52e+06 M⁻¹ s⁻¹
same,Ka,[9],8.41e+07 M⁻¹
same,koff,[9],0.0344 s⁻¹
same,kon,[9],2.89e+06 M⁻¹ s⁻¹
same,Ka,[10],9.35e+07 M⁻¹
same,koff,[10],0.0345 s⁻¹
same,kon,[10],3.23e+06 M⁻¹ s⁻¹
same,Kd,[11],0.0163 µM
same,Kd,[12],0.011 µM
same,Kd,[13],0.0131 µM
same,Kd,[14],0.0119 µM
same,Kd,[15],0.0107 µM
B3,Kd,[16],0.01 to 0.1 µM
same,Kd,[2],0.1 to 0.5 µM
same,Kd,[17],0.06 µM
same,Kd,[3],0.2 µM
same,Kd,[5],0.12 µM
same,Kd,[18],0.07 µM
B4,Kd,[16],0.5 to 5 µM
same,Kd,[3],> 5 µM
same,Kd,[4],0.8 µM
same,Kd,[5],> 5 µM
same,Ka,[19],1.03e+06 M⁻¹
same,koff,[19],0.0486 s⁻¹
same,kon,[19],50100 M⁻¹ s⁻¹
same,Ka,[20],2.33e+06 M⁻¹
same,koff,[20],0.0481 s⁻¹
same,kon,[20],112000 M⁻¹ s⁻¹
same,Ka,[21],2.85e+06 M⁻¹
same,koff,[21],0.0523 s⁻¹
same,kon,[21],149000 M⁻¹ s⁻¹
same,Ka,[22],1.05e+06 M⁻¹
same,koff,[22],0.0539 s⁻¹
same,kon,[22],56300 M⁻¹ s⁻¹
same,Kd,[23],0.97 µM
same,Kd,[24],0.429 µM
same,Kd,[25],0.351 µM
same,Kd,[26],0.957 µM
B5,Kd,[16],0.1 to 0.5 µM
same,Kd,[3],> 5 µM
same,Kd,[4],0.4 µM
same,Kd,[5],> 5 µM
same,Ka,[27],1.51e+06 M⁻¹
same,koff,[27],0.0946 s⁻¹
same,kon,[27],143000 M⁻¹ s⁻¹
same,Ka,[28],2.83e+06 M⁻¹
same,koff,[28],0.0998 s⁻¹
same,kon,[28],283000 M⁻¹ s⁻¹
same,Ka,[29],2.93e+06 M⁻¹
same,koff,[29],0.103 s⁻¹
same,kon,[29],302000 M⁻¹ s⁻¹
same,Ka,[30],5.93e+06 M⁻¹
same,koff,[30],0.105 s⁻¹
same,kon,[30],623000 M⁻¹ s⁻¹
same,Ka,[31],2.33e+06 M⁻¹
same,koff,[31],0.108 s⁻¹
same,kon,[31],251000 M⁻¹ s⁻¹
same,Ka,[32],22100 M⁻¹
same,koff,[32],0.106 s⁻¹
same,kon,[32],2350 M⁻¹ s⁻¹
same,koff,[33],0.107 s⁻¹
same,Ka,[34],5.01e+06 M⁻¹
same,koff,[34],0.1 s⁻¹
same,kon,[34],501000 M⁻¹ s⁻¹
same,Kd,[35],0.662 µM
same,Kd,[36],0.353 µM
same,Kd,[37],0.341 µM
same,Kd,[38],0.2 µM
same,Kd,[39],0.169 µM
same,Kd,[40],0.43 µM
same,Kd,[41],45.1 µM
same,Kd,[42],9710 µM
